Measurements as given in publication PMC8366792.

What was measured:
[1] = target: CH848 10.17DT SOSIPv4.1 trimer (HIV-1 (CH848 10.17) | HIV-1 (BG505)) (UniProt Q2N0S6); test: SEC
[2] = target: CH848 10.17DT DS SOSIP trimer (HIV-1 (CH848 10.17) | HIV-1 (BG505)) (UniProt Q2N0S6); test: SEC

| Substance | percent of the total peak that is trimer [1] | percent of the total peak that is trimer [2] | stoichiometry N [2] |
| --- | --- | --- | --- |
| CH848 10.17DT SOSIPv4.1 trimer (from UniProt Q2N0S6 509-661) (domain or fragment) | 62% |  |  |
| CH848 10.17DT DS SOSIP trimer (from UniProt Q2N0S6 509-661) (domain or fragment) |  | 65% | 3 |
